Measured values from PMC9736777, “Expression and Characterization of Monomeric Recombinant Isocitrate Dehydrogenases from Corynebacterium glutamicum and Azotobacter vinelandii for NADPH Regeneration” (International Journal of Molecular Sciences, 2022).

B1: CgIDH (Corynebacterium glutamicum ATCC 13032) (protein)
chain: MAKIIWTRTDEAPLLATYSLKPVVEAFAATAGIEVETRDISLAGRILAQFPERLTEDQKVGNALAELGELAKTPEANIIKLPNISASVPQLKAAIKELQDQGYDIPELPDNATTDEEKDILARYNAVKGSAVNPVLREGNSDRRAPIAVKNFVKKFPHRMGEWSADSKTNVATMDANDFRHNEKSIILDAADEVQIKHIAADGTETILKDSLKLLEGEVLDGTVLSAKALDAFLLEQVARAKAEGILFSAHLKATMMKVSDPIIFGHVVRAYFADVFAQYGEQLLAAGLNGENGLAAILSGLESLDNGEEIKAAFEKGLEDGPDLAMVNSARGITNLHVPSDVIVDASMPAMIRTSGHMWNKDDQEQDTLAIIPDSSYAGVYQTVIEDCRKNGAFDPTTMGTVPNVGLMAQKAEEYGSHDKTFRIEADGVVQVVSSNGDVLIEHDVEANDIWRACQVKDAPIQDWVKLAVTRSRLSGMPAVFWLDPERAHDRNLASLVEKYLADHDTEGLDIQILSPVEATQLSIDRIRRGEDTISVTGNVLRDYNTDLFPILELGTSAKMLSVVPLMAGGGLFETGAGGSAPKHVQQVQEENHLRWDSLGEFLALAESFRHELNNNGNTKAGVLADALDKATEKLLNEEKSPSRKVGEIDNRGSHFWLTKFWADELAAQTEDADLAATFAPVAEALNTGAADIDAALLAVQGGATDLGGYYSPNEEKLTNIMRPVAQFNEIVDALKK
notes: full-length gene, C-terminal 6xHis (kept), pET24a, E. coli BL21(DE3), Ni-NTA; about 80 kDa by SEC, monomer
B2: AvIDH (Azotobacter vinelandii) (protein)
chain: STPKIIYTLTDEAPALATYSLLPIIKAFTGSSGIAVETRDISLAGRLIATFPEYLTDTQKISDDLAELGKLATTPDANIIKLPNISASVPQLKAAIKELQQQGYKLPDYPEEPKTDTEKDVKARYDKIKGSAVNPVLREGNSDRRAPLSVKNYARKHPHKMGAWSADSKSHVAHMDNGDFYGSEKAALIGAPGSVKIELIAKDGSSTVLKAKTSVQAGEIIDSSVMSKNALRNFIAAEIEDAKKQGVLLSVHLKATMMKVSDPIMFGQIVSEFYKDALTKHAEVLKQIGFDVNNGIGDLYARIKTLPEAKQKEIEADIQAVYAQRPQLAMVNSDKGITNLHVPSDVIVDASMPAMIRDSGKMWGPDGKLHDTKAVIPDRCYAGVYQVVIEDCKQHGAFDPTTMGSVPNVGLMAQKAEEYGSHDKTFQIPADGVVRVTDESGKLLLEQSVEAGDIWRMCQAKDAPIQDWVKLAVNRARATNTPAVFWLDPARAHDAQVIAKVERYLKDYDTSGLDIRILSPVEATRFSLARIREGKDTISVTGNVLRDYLTDLFPIMELGTSAKMLSIVPLMSGGGLFETGAGGSAPKHVQQFLEEGYLRWDSLGEFLALAASLEHLGNAYKNPKALVLASTLDQATGKILDNNKSPARKVGEIDNRGSHFYLALYWAQALAAQTEDKELQAQFTGIAKALTDNETKIVGELAAAQGKPVDIAGYYHPNTDLTSKAIRPSATFNAALAPLA
notes: full-length gene, C-terminal 6xHis (kept), pET24a, E. coli BL21(DE3), Ni-NTA

Experiments:
Assay in all cases: NADPH fluorescence, initial rates, Michaelis-Menten fit
[1] = substrate: NC(=O)c1ccc[n+]([C@@H]2O[C@H](COP(=O)(O)OP(=O)(O)OC[C@H]3O[C@@H](n4cnc5c(N)ncnc54)[C@H](OP(=O)(O)O)[C@@H]3O)[C@@H](O)[C@H]2O)c1; format: biochemical, Corynebacterium glutamicum; conditions: 1 mM isocitrate, 1 mM MnCl2, 20 mM MOPS pH 7.4, 100 mM NaCl, 30 °C, varied: cofactor
Excerpt: (§1) NADPH fluorescence, initial rates, Michaelis-Menten fit on CgIDH

[2] = substrate: O=C(O)CC(C(=O)O)C(O)C(=O)O; format: biochemical, Corynebacterium glutamicum; conditions: 1 mM NADP+, 1 mM MnCl2, 20 mM MOPS pH 7.4, 100 mM NaCl, 30 °C, DL-isocitrate 0-100 μM
Excerpt: as §1

[3] = substrate: NC(=O)c1ccc[n+]([C@@H]2O[C@H](COP(=O)(O)OP(=O)(O)OC[C@H]3O[C@@H](n4cnc5c(N)ncnc54)[C@H](OP(=O)(O)O)[C@@H]3O)[C@@H](O)[C@H]2O)c1; format: biochemical, Azotobacter vinelandii; conditions: 1 mM isocitrate, 1 mM MnCl2, 20 mM MOPS pH 7.4, 100 mM NaCl, 30 °C, varied: cofactor
Excerpt: (§2) NADPH fluorescence, initial rates, Michaelis-Menten fit on AvIDH

[4] = substrate: O=C(O)CC(C(=O)O)C(O)C(=O)O; format: biochemical, Azotobacter vinelandii; conditions: 1 mM NADP+, 1 mM MnCl2, 20 mM MOPS pH 7.4, 100 mM NaCl, 30 °C, DL-isocitrate 0-100 μM
Excerpt: as §2

| Protein | Km [1] | kcat [1] | kcat/Km [1] | Km [2] | kcat [2] | kcat/Km [2] | Km [3] | kcat [3] | kcat/Km [3] | Km [4] | kcat [4] | kcat/Km [4] |
| --- | --- | --- | --- | --- | --- | --- | --- | --- | --- | --- | --- | --- |
| B1 | 10.3 µM | 43.7 s⁻¹ | 4.3e+06 M⁻¹ s⁻¹ | 15.0 µM | 49.4 s⁻¹ | 3.3e+06 M⁻¹ s⁻¹ | – | – | – | – | – | – |
| B2 | – | – | – | – | – | – | 5.9 µM | 38.7 s⁻¹ | 6.6e+06 M⁻¹ s⁻¹ | 13.9 µM | 44 s⁻¹ | 3.2e+06 M⁻¹ s⁻¹ |
